± gives the standard deviation of the averaged measurements.
Test: total protein half-life in vivo (active degradation + dilution); higher = more stable protein
[1] = E. coli NCM3722 delta-clpP delta-lon delta-hslV, growth: N-lim chemostat, doubling time 6 h
[2] = E. coli NCM3722 delta-hslV, growth: N-lim chemostat, doubling time 6 h
[3] = E. coli NCM3722 delta-smpB, growth: N-lim chemostat, doubling time 6 h
[4] = wild type E. coli NCM3722, growth: C-lim chemostat, doubling time 3 h
[5] = wild type E. coli NCM3722, growth: C-lim chemostat, doubling time 6 h
[6] = wild type E. coli NCM3722, growth: C-lim chemostat, doubling time 12 h
[7] = wild type E. coli NCM3722, growth: N-lim chemostat, doubling time 6 h
[8] = wild type E. coli NCM3722, growth: P-lim chemostat, doubling time 6 h
[9] = wild type E. coli NCM3722, growth: P-lim chemostat, doubling time 12 h
[10] = E. coli NCM3722 delta-clpP, growth: N-lim chemostat, doubling time 6 h
[11] = wild type E. coli NCM3722, growth: N-lim chemostat, doubling time 12 h
[12] = E. coli NCM3722 delta-lon, growth: N-lim chemostat, doubling time 6 h

Sequence | total protein half-life in vivo [1] [h] | total protein half-life in vivo [2] [h] | total protein half-life in vivo [3] [h] | total protein half-life in vivo [4] [h] | total protein half-life in vivo [5] [h] | total protein half-life in vivo [6] [h] | total protein half-life in vivo [7] [h] | total protein half-life in vivo [8] [h] | total protein half-life in vivo [9] [h] | total protein half-life in vivo [10] [h] | total protein half-life in vivo [11] [h] | total protein half-life in vivo [12] [h]
MSIKTSNTDFKTRIRQQIEDPIMRKAVANAQQRIGANRQKMVDELGHWEEWRDRAAQIRDHVLSNLDAYLYQLSEKVTQNGGHVYFARTKEDATRYILQVAQRKNARKVVKSKSMVTEEIGVNHVLQDAGIQVIETDLGEYILQLDQDPPSHVVVPAIHKDRHQIRRVLHERLGYEGPETPEAMTLFIRQKIREDFLSAEIGITGCNFAVAETGSVCLVTNEGNARMCTTLPKTHIAVMGMERIAPTFAEVDVLITMLARSAVGARLTGYNTWLTGPREAGHVDGPEEFHLVIVDNGRSEVLASEFRDVLRCIRCGACMNTCPAYRHIGGHGYGSIYPGPIGAVISPLLGGYKDFKDLPYACSLCTACDNVCPVRIPLSKLILRHRRVMAEKGITAKAEQRAIKMFAYANSHPGLWKVGMMAGAHAASWFINGGKTPLKFGAISDWMEARDLPEADGESFRSWFKKHQAQEKKNG | 5.21 ± 0.71 | 3.96 ± 3.1 | 1.76 ± 0.072 | 1.83 ± 0.084 | 3.47 ± 0.48 | 4.06 ± 0.2 | 1.72 | 1.89 | 3.14 ± 0.62 |  |  | 
MSSRVLTPDVVGIDALVHDHQTVLAKAEGGVVAVFANNAPAFYAVTPARLAELLALEEKLARPGSDVALDDQLYQEPQAAPVAVPMGKFAMYPDWQPDADFIRLAALWGVALREPVTTEELASFIAYWQAEGKVFHHVQWQQKLARSLQIGRASNGGLPKRDVNTVSEPDSQIPPGFRG [P0A8J2] | 4.71 ± 0.31 | 1.78 ± 0.14 |  |  | 3.49 | 5.15 ± 0.3 |  | 2.68 ± 0.39 | 5.6 ± 0.28 | 4.26 | 2.93 ± 0.94 | 
MQERHTEQDYRALLIADTPIIDVRAPIEFEHGAMPAAINLPLMNNDERAAVGTCYKQQGSDAALALGHKLVAGEIRQQRMDAWRAACLQNPQGILCCARGGQRSHIVQSWLHAAGIDYPLVEGGYKALRQTAIQATIELAQKPIVLIGGCTGSGKTLLVQQQPNGVDLEGLARHRGSAFGRTLQPQLSQASFENLLAAEMLKTDARQNLRLWVLEDESRMIGSNHLPECLRERMTQAAIAVVEDPFEIRLERLNEEYFLRMHHDFTHAYGDEQGWQEYCEYLHHGLSAIKRRLGLQRYNELAARLDAALTTQLTTGSTDGHLAWLVPLLEEYYDPMYRYQLEKKAEKVVFRGEWAEVAEWVKAR | 4.83 ± 0.89 | 4.35 ± 0.77 | 3.75 ± 0.5 | 3.16 ± 0.1 | 5.87 ± 0.98 | 10.2 ± 1.6 | 4.54 ± 0.24 | 5.64 ± 0.47 |  | 4.43 ± 0.057 | 7.414 ± 0.067 | 4.417 ± 0.0075
MKTLLIIDANLGQARAYMAKTLLGAAARKAKLEIIDNPNDAEMAIVLGDSIPNDSALNGKNVWLGDISRAVAHPELFLSEAKGHAKPYTAPVAATAPVAASGPKRVVAVTACPTGVAHTFMAAEAIETEAKKRGWWVKVETRGSVGAGNAITPEEVAAADLVIVAADIEVDLAKFAGKPMYRTSTGLALKKTAQELDKAVAEATPYEPAGKAQTATTESKKESAGAYRHLLTGVSYMLPMVVAGGLCIALSFAFGIEAFKEPGTLAAALMQIGGGSAFALMVPVLAGYIAFSIADRPGLTPGLIGGMLAVSTGSGFIGGIIAGFLAGYIAKLISTQLKLPQSMEALKPILIIPLISSLVVGLAMIYLIGKPVAGILEGLTHWLQTMGTANAVLLGAILGGMMCTDMGGPVNKAAYAFGVGLLSTQTYGPMAAIMAAGMVPPLAMGLATMVARRKFDKAQQEGGKAALVLGLCFISEGAIPFAARDPMRVLPCCIVGGALTGAISMAIGAKLMAPHGGLFVLLIPGAITPVLGYLVAIIAGTLVAGLAYAFLKRPEVDAVAKAA | 6.73 ± 0.62 | 5.956 ± 0.014 | 5.89 ± 0.43 | 3.54 ± 0.33 | 6.11 ± 0.28 | 13.4 ± 0.7 | 5.89 ± 0.44 | 6.29 ± 0.29 | 11.9 ± 0.6 |  | 11.6 ± 0.25 | 5.76 ± 0.27
MSEVEFSHEYWMRHALTLAKRAWDEREVPVGAVLVHNNRVIGEGWNRPIGRHDPTAHAEIMALRQGGLVMQNYRLIDATLYVTLEPCVMCAGAMIHSRIGRVVFGARDAKTGAAGSLMDVLHHPGMNHRVEITEGILADECAALLSDFFRMRRQEIKAQKKAQSSTD | 5.35 ± 0.49 | > 8 |  |  |  |  |  | > 8 | 10.7 ± 0.33 |  |  | 4.63
MNEQNLKHVIALLLEDAKRLQQIEPNAGTEARILLAKQALKTCGAQAPGRTEFMNFMANTLTPLPCNGEKVSRVYHDTMVKALRIELDGLRRKIVMNEIVTN | 4.2 |  |  |  |  |  | 4.61 |  |  | 4.79 |  | 
MHGNSEMQKINQTSAMPEKTDVHWSGRFSVAPMLDWTDRHCRYFLRLLSRNTLLYTEMVTTGAIIHGKGDYLAYSEEEHPVALQLGGSDPAALAQCAKLAEARGYDEINLNVGCPSDRVQNGMFGACLMGNAQLVADCVKAMRDVVSIPVTVKTRIGIDDQDSYEFLCDFINTVSGKGECEMFIIHARKAWLSGLSPKENREIPPLDYPRVYQLKRDFPHLTMSINGGIKSLEEAKAHLQHMDGVMVGREAYQNPGILAAVDREIFGSSDTDADPVAVVRAMYPYIERELSQGTYLGHITRHMLGLFQGIPGARQWRRYLSENAHKAGADINVLEHALKLVADKR | 4.26 ± 0.35 | 4.51 ± 0.81 | 4.07 ± 0.18 | 3.01 ± 0.14 | 5.432 ± 0.022 | 9.77 ± 1.5 | 4.2 ± 0.5 | 6.57 ± 1.6 | 10.9 ± 1.2 | 4.49 ± 1.1 | 6.88 ± 0.21 | 4.31 ± 0.14

— the supplement of paper PMC11246515
